Reference: patent US20230374132A1 (Innovent, published 2023)
Numbering of substitutions follows the chain as printed. In names and notes the source's numbering stands.

B1: Her2-hzsp34.24 (bispecific antibody, IgG1, V domains shown)
VH 1: not shown
VL 1: not shown
VH 2: EVQLVESGGGLVQPGGSLKLSCAASGFTFNTYAMNWVRQASGKGLEWVGRIRSKYNNYATYYADSVKDRFTISRDDSKSTLYLQMNSLKTEDTAVYYCARHGNFGQSYVSWFAYWGQGTTVTVSS
VL 2: QAVVTQEPSLTVSPGGTVTLTCRSSTGAVTTSNYANWVQQKPGQAPRGLIGGTNKRAPGVPARFSGSLLGDKAALTLLGAQPEDEAEYYCALWYSNLWVFGQGTKLTVL
notes: 1+1 trastuzumab x hzsp34.24, IgG1 LALA knob-into-hole; also called Her2-sp34.24; copies: 1 + 1 + 1 + 1
B2: Her2-hzsp34.87 (bispecific antibody, IgG1, V domains shown)
VH 1: not shown
VL 1: not shown
VH 2: B1 VH 2 with G102Y
VL 2: B1 VL 2
notes: 1+1 trastuzumab x hzsp34.87, IgG1 LALA knob-into-hole; also called Her2-sp34.87; copies: 1 + 1 + 1 + 1
B3: Her2-hzsp34.80 (bispecific antibody, IgG1, V domains shown)
VH 1: not shown
VL 1: not shown
VH 2: B1 VH 2 with Y32A
VL 2: B1 VL 2
notes: 1+1 trastuzumab x hzsp34.80, IgG1 LALA knob-into-hole; also called Her2-sp34.80; copies: 1 + 1 + 1 + 1
B4: Her2-hzsp34.101 (bispecific antibody, IgG1, V domains shown)
VH 1: not shown
VL 1: not shown
VH 2: B1 VH 2 with Y108A, V109A
VL 2: B1 VL 2
notes: 1+1 trastuzumab x hzsp34.101, IgG1 LALA knob-into-hole; also called Her2-sp34.101; copies: 1 + 1 + 1 + 1
B5: Her2-hzsp34.99 (bispecific antibody, IgG1, V domains shown)
VH 1: not shown
VL 1: not shown
VH 2: B1 VH 2 with F104A, G105Y
VL 2: B1 VL 2
notes: 1+1 trastuzumab x hzsp34.99, IgG1 LALA knob-into-hole; also called Her2-sp34.99; copies: 1 + 1 + 1 + 1
B6: Her2-hzsp34.97 (bispecific antibody, IgG1, V domains shown)
VH 1: not shown
VL 1: not shown
VH 2: B1 VH 2 with Y55A, N56G, N57G
VL 2: B1 VL 2
notes: 1+1 trastuzumab x hzsp34.97, IgG1 LALA knob-into-hole; also called Her2-sp34.97; copies: 1 + 1 + 1 + 1
B7: hzsp34.7 (antibody, human IgG1, lambda, L234A L235A, V domains shown)
VH: B1 VH 2 with S79N, Q106N
VL: QAVVTQEPSLTVSPGGTVTLTCRSSTGAVTTSNYANWFQQKPGQAPRTLIYGTNKRAPWTPARFSGSLLGGKAALTLLGAQPEDEAEYYCALWYSNLWVFGQGTKLTVLG
notes: IgG1 L234A L235A, lambda
B8: hzsp34.33 (antibody, human IgG1, kappa, L234A L235A, V domains shown)
VH: B1 VH 2 with Q106N
VL: EIVMTQSPATLSVSPGERATLSCRSSTGAVTTSNYANWVQQKPGQAPRLLIGGTNKRAPGVPARFSGSGSGTEFTLTISSLQSEDFAVYYCALWYSNLWVFGQGTKLTVLR
notes: IgG1 L234A L235A, kappa
B9: hzsp34.28 (antibody, human IgG1, kappa, L234A L235A, V domains shown)
VH: B1 VH 2 with Q106N
VL: B8 VL with V39Y, G52Y, V61I
notes: IgG1 L234A L235A, kappa
B10: hzsp34.12 (antibody, human IgG1, lambda, L234A L235A, V domains shown)
VH: B1 VH 2 with S79N, Q106N
VL: B7 VL with F38V, Y51G, W59G, T60V
notes: IgG1 L234A L235A, lambda

target: T1, cynomolgus monkey CD3 E&D complex protein (Sino Biological Inc., CT032-00323H) (cynomolgus monkey, UniProt Q95LI5 22-117; Q95LI8 22-105); assay: SPR, antigen on chip
T1 construct: bought heterodimer
T1 sequence (Q95LI5 22-117, chain 1 of 2): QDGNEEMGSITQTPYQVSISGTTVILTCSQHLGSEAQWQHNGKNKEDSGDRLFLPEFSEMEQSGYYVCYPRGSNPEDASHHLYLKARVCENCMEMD
T1 sequence (Q95LI8 22-105, chain 2 of 2): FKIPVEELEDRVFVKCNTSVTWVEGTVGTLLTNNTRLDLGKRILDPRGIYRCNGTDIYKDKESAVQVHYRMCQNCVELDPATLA
Method: (§1) The CD3 equilibrium dissociation constant (KD) of Her2×CD3 bispecific antibody was determined using Biacore (GE Healthcare, T200), and the specific method is as follows:
(§2) The human CD3E&G antigen (Sino Biological Inc., CT041-H0305H) and Cynomolgus monkey CD3E&D antigen protein (Sino Biological Inc., CT032-00323H) were coupled to the chip surface. Afterwards, the affinity and kinetic constants were obtained by detecting the binding and dissociation between the chip surface antigen and the antibody in the mobile phase. The method includes chip preparation and affinity detection. 10-fold diluted 10×HBS-EP+(BR-1006-69, GE Healthcare) was used as the experimental buffer during measurement. […] After coupling, 1 M ethanolamine was injected to block the remaining activation sites. Affinity detection cycle is carried out for each concentration of antibody, and each cycle includes binding to antibody with this concentration and chip regeneration. The antibody after serial dilution (Her2-sp34.24: initial concentration 32 nM, 2 folds serial dilution; Her2-sp34.87: initial concentration 200 nM, 2 folds serial dilution; Her2-sp34.80, Her2-sp34.97, Her2-sp34.99, Her2-sp34.101: initial concentration 800 nM, 2 folds serial dilution; all dilute 5 concentration points), flows through the chip surface from low concentration to high concentration at 30 μl/min of the flow rate, with a binding time of 180 s and a dissociation time of 600 s. Finally, 10 mM Glycine pH 1.5 (BR-1003-54, GE Healthcare) was used to regenerate the chip. The data results were analyzed using the Biacore T200 analysis software (version 3.1), and the analysis model used was 1:1 combined model for dynamic analysis.

| Kd | koff | kon | Binder |
| --- | --- | --- | --- |
| 7.2 nM | 0.008 s⁻¹ | 1.11e+06 M⁻¹ s⁻¹ | B1 |
| 242 nM | 0.035 s⁻¹ | 145000 M⁻¹ s⁻¹ | B2 |
| 1310 nM | 0.78 s⁻¹ | 596000 M⁻¹ s⁻¹ | B3 |
| 179 nM | 0.0987 s⁻¹ | 551000 M⁻¹ s⁻¹ | B4 |
| 1200 nM | 0.1 s⁻¹ | 83400 M⁻¹ s⁻¹ | B5 |
| 327 nM | 0.177 s⁻¹ | 543000 M⁻¹ s⁻¹ | B6 |

target: T2, human CD3E&G complex (Sino Biological Inc., CT041-H0305H) (human, UniProt P07766 23-126; P09693 23-116); assay: SPR, antigen on chip
T2 construct: bought heterodimer; also called human CD3E&G antigen
T2 sequence (P07766 23-126, chain 1 of 2): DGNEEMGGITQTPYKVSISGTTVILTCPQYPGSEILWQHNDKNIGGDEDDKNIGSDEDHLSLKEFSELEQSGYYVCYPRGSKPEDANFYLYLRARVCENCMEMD
T2 sequence (P09693 23-116, chain 2 of 2): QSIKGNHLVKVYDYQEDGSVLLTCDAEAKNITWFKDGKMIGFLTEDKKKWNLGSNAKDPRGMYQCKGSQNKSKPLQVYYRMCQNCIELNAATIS
Method: as §1, §2

| Kd | koff | kon | Binder |
| --- | --- | --- | --- |
| 4.88 nM | 0.00779 s⁻¹ | 1.6e+06 M⁻¹ s⁻¹ | B1 |
| 141 nM | 0.0462 s⁻¹ | 327000 M⁻¹ s⁻¹ | B2 |
| 987 nM | 0.491 s⁻¹ | 497000 M⁻¹ s⁻¹ | B3 |
| 159 nM | 0.101 s⁻¹ | 637000 M⁻¹ s⁻¹ | B4 |
| 627 nM | 0.0817 s⁻¹ | 130000 M⁻¹ s⁻¹ | B5 |
| 361 nM | 0.191 s⁻¹ | 528000 M⁻¹ s⁻¹ | B6 |

target: T3, human CD3 E&D complex protein (Sino Biological Inc., CT026H0323H) (human, UniProt P07766 23-126; P04234 22-105); assay: BLI, antibody on sensor
T3 construct: bought heterodimer; also called human CD3 protein (CT026H0323H)
T3 sequence (P07766 23-126, chain 1 of 2): as the sequence (P07766 23-126, chain 1 of 2) above
T3 sequence (P04234 22-105, chain 2 of 2): as the sequence (Q95LI8 22-105, chain 2 of 2) above, with V5I, K15N, V20I, T32S, N33D, N34I, A64T, N74S, L83V counted along it
Method: (§3) 100 μl SD buffer, various antibodies, human CD3 E&D complex protein (Sino Biological Inc., CT026H0323H), and cynomolgus monkey CD3 E&D complex protein (Sino Biological Inc., CT032-00323H) were added into 96-well black polystyrene semi-quantitative micro-well plate (Greiner, 675076) respectively. Fortebio Octet Red 96 was used for detection, and the sensor position was selected according to the sample position. The setting parameters of the instrument are as follows: operation steps: Baseline, Loading-1 nm, Baseline, Association and Dissociation; the operation time of each step depends on the speed of sample association and dissociation. The rotational speed is 1000 rpm and the temperature is 30° C. ForteBio Octet analysis software was used to analyze KD value.

| binding result | Kd | koff | kon | Binder |
| --- | --- | --- | --- | --- |
| no binding |  |  |  | B7 |
| no binding |  |  |  | B8 |
| no binding |  |  |  | B9 |
|  | 6.19 nM | 0.00396 s⁻¹ | 640000 M⁻¹ s⁻¹ | B10 |

target: T1, cynomolgus monkey CD3 E&D complex …; assay: BLI, antibody on sensor
Method: as §3

| Kd | koff | kon | binding result | Binder |
| --- | --- | --- | --- | --- |
| 1.66 nM | 0.000463 s⁻¹ | 279000 M⁻¹ s⁻¹ |  | B7 |
|  |  |  | no binding | B8 |
| 2.82 nM | 0.00117 s⁻¹ | 415000 M⁻¹ s⁻¹ |  | B9 |
| 4.73 nM | 0.00226 s⁻¹ | 479000 M⁻¹ s⁻¹ |  | B10 |
